Data reported in US7585967 (VASGENE THERAPEUTICS, dated 2009).

T1: B4ECv3NT protein (soluble extracellular domain of human EphB4 without epitope or purification tags) (human, UniProt P54760 16-537)
T1 construct: also called EphB4ECnt; B4EC-NT
T1 sequence: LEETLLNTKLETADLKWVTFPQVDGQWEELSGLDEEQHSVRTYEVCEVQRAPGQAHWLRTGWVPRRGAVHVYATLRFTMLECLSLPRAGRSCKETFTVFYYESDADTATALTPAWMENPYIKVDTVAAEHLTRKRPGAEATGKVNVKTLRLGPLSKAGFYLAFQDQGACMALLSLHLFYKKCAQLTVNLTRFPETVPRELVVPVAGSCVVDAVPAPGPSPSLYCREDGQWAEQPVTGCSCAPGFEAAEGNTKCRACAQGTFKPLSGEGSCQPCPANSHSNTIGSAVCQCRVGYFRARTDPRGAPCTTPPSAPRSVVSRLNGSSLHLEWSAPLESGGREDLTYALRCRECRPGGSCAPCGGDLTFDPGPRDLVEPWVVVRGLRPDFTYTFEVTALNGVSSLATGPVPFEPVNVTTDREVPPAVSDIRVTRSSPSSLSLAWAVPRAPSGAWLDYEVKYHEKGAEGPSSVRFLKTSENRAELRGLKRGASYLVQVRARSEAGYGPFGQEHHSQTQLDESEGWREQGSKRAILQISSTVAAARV

T2: B4-GCF2 protein (complete extracellular part of human EphB4, C-terminally 6xHis tagged) (human, UniProt P54760 16-537)
T2 construct: Range 1-522 is numbered on mature EphB4 (after leader removal)
T2 sequence: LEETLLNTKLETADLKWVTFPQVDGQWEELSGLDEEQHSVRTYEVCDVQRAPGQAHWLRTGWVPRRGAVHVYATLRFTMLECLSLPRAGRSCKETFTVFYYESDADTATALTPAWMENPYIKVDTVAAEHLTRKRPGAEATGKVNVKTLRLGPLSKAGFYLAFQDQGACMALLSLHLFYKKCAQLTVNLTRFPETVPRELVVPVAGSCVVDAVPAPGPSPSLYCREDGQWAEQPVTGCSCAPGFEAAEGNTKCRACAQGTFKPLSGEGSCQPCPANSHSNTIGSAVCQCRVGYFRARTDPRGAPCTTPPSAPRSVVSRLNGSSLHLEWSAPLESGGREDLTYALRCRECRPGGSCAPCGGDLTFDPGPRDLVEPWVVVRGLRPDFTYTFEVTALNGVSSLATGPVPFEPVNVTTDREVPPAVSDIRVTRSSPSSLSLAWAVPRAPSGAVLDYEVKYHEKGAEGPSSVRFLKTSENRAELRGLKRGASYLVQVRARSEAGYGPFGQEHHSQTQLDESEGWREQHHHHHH

T3: B4-GCF1 protein (globular, Cys-rich and first FNIII domain of human EphB4, C-terminally 6xHis tagged) (human, UniProt P54760 16-427)
T3 construct: Range is numbered on mature EphB4
T3 sequence: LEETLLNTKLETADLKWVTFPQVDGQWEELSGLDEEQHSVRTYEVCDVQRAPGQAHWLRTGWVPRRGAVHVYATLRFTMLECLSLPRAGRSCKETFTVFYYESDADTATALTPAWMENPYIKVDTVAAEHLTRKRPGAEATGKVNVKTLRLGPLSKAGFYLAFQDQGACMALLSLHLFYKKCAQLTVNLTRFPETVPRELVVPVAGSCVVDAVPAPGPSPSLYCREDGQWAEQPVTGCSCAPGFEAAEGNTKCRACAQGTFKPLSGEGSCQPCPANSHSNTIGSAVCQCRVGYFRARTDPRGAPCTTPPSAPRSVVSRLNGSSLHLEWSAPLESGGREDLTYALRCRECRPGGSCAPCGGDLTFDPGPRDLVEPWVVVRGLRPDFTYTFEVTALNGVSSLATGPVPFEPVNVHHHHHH

T4: B4-GC protein (globular domain and Cys-rich domain of human EphB4, C-terminally 6xHis tagged) (human, UniProt P54760 16-327)
T4 construct: Range is numbered on mature EphB4
T4 sequence: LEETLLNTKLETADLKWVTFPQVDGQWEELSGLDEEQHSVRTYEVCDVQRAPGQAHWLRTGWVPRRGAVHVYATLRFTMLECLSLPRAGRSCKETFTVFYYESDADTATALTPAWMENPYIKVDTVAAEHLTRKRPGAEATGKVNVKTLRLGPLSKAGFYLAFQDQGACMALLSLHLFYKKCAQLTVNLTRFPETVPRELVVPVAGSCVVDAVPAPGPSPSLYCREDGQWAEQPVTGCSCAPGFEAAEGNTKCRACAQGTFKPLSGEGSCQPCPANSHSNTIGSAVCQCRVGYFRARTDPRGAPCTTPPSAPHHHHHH

T5: B4ECv3 protein (soluble extracellular domain of human EphB4 with V5 epitope tag and 6xHis tag on its … (human, UniProt P54760 16-537))
T5 construct: also called EphB4ECv3; hB4ECv3
T5 sequence: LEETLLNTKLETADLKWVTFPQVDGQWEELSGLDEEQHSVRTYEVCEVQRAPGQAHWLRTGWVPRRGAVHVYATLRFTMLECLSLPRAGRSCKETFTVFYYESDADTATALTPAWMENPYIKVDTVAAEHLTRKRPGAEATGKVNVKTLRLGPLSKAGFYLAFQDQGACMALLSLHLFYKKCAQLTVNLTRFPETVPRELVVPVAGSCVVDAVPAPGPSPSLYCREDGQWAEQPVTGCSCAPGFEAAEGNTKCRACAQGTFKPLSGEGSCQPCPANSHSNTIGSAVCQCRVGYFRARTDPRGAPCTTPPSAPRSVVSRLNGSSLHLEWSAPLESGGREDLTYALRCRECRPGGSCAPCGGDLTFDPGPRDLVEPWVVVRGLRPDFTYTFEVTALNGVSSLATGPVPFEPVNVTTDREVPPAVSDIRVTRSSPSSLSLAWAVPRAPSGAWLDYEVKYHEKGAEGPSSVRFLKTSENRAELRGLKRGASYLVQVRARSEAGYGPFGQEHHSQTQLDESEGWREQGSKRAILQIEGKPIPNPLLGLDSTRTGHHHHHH

T6: Mouse EphB4/Fc (R & D Systems) (mouse, UniProt P54761 16-539)
T6 construct: Bought; also called EphB4/Fc fusion protein; not shown: Fc; detected with anti-human Fc / anti-human IgG-FITC
T6 sequence (looked up): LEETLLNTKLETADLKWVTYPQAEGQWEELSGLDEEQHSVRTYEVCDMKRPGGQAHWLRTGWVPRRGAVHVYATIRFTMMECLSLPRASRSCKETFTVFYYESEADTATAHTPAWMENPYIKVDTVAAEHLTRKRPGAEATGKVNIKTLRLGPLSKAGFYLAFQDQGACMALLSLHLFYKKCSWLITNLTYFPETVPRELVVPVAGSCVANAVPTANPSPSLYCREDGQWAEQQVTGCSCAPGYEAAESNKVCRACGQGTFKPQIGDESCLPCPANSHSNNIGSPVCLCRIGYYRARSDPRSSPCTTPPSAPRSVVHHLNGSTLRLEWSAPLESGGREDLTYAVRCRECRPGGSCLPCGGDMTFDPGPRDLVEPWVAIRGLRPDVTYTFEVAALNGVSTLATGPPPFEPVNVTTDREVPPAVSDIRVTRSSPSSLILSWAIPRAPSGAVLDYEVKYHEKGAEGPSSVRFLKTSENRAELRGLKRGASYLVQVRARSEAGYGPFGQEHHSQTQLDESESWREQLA


Key:
[1] = biological target: T1, B4ECv3NT protein (soluble extracellular …); assay: biochemical assays with B2EC-AP reagent
[2] = biological target: T2, B4-GCF2 protein (complete extracellular …); assay: Ephrin B2-AP on B4 proteins immobilized on Ni2+-resin or on nitrocellulose membrane
Procedure: (§1) To confirm ability of the purified recombinant proteins to bind Ephrin B2, they were tested in an in vitro binding assay. As expected, GC, GCF1 and GCF2, but not CF2 are binding the cognate ligand Ephrin B2 as confirmed by interaction between Ephrin B2-alkaline phosphatase (Ephrin B2-AP) fusion protein with the B4 proteins immobilized on Ni^2+-resin or on nitrocellulose membrane (FIG. 17).
(§2) To test ligand binding properties of the proteins, 10 µl of Ni-NTA-Agarose (Qiagen) were incubated in microcentrifuge tubes with 10-500 ng sample of a B4-ECD protein diluted in 0.5 ml of binding buffer BB (20 mM Tris-HCl, 0.15 M NaCl, 0.1% bovine serum albumin, pH 8). After incubation for 30 min on shaking platform, Ni-NTA beads were washed twice with 1.4 ml of BB, followed by addition of B2-AP fusion protein at concentration of 50 nM. Binding was performed for 30 min on a shaking platform. Tubes were centrifuged and washed once with 1.4 ml of BB. Amount of precipitated AP was measured colorimetrically at 420 nm after application of p-nitrophenyl phosphate (PNPP) and incubation for 5-30 min.

[3] = biological target: T3, B4-GCF1 protein (globular, Cys-rich and …); assay: as above
Procedure: as §1, §2

[4] = biological target: T4, B4-GC protein (globular domain and …); assay: as above
Procedure: as §1, §2

[5] = biological target: T5, B4ECv3 protein (soluble extracellular …); assay: B4ECv3 on Ni-NTA-agarose, B2-AP at 50 nM, PNPP colour
Procedure: 10 µl of Ni-NTA-Agarose were incubated in microcentrifuge tubes with 50 µl of indicated amount of B4ECv3 diluted in binding buffer BB (20 mM Tris-HCl, 0.15 M NaCl, 0.1% bovine serum albumin pH 8) After incubation for 30 min on shaking platform, Ni-NTA beads were washed twice with 1.4 ml of BB, followed by application of 50 µl of B2-AP in the final concentration of 50 nM. Binding was performed for 30 min on shaking platform, and then tubes were centrifuged and washed one time with 1.4 ml of BB. Amount of precipitated AP was measured […] after application of PNPP.

[6] = biological target: T6, Mouse EphB4/Fc (R & D Systems); assay: immunofluorescence on frozen KS sections, FITC-labeled anti-human Fc antibody
From the text: (A) In situ hybridization with antisense probes for ephrin B2 and EphB4 with corresponding H&E stained section to show tumor architecture. Dark blue color in the ISH indicates positive reaction for ephrin B2. No signal for EphB4 was detected in the Kaposi's sarcoma biopsy. For contrast, ISH signal for EphB4 is strong in squamous cell carcinoma tumor cells. Ephrin B2 was also detected in KS using EphB4-AP fusion protein (bottom left). (B) Detection of ephrin B2 with EphB4/Fc fusion protein. Adjacent sections were stained with H&E (left) to show tumor architecture, black rectangle indicates the area shown in the EphB4/Fc treated section (middle) detected with FITC-labeled anti-human Fc antibody as described in the methods section. As a control an adjacent section was treated with human Fc fragment (right). Specific signal arising from EphB4/Fc binding to the section is seen only in areas of tumor cells. (C) Co-expression of ephrin B2 and the HHV8 latency protein LANA1. […] Coexpression is seen as yellow color.
Immunofluorescence detection of EphrinB2 with EPHB4-Fc was done as follows. Frozen sections fixed in 4% paraformaldehyde and blocked with 20% FBS were incubated with 5 μg/ml EphB4/Fc (R&D Systems) for 1 h at RT. Sections were then incubated with 10 μg/ml rabbit anti-human IgG-FITC in PBS (Jackson ImmunoResearch Laboratories West Grove, Pa.) at RT for 1 hour. […]

| binding result [1] | binding result [2] | binding result [3] | binding result [4] | binding result [5] | binding result [6] | Binder |
| --- | --- | --- | --- | --- | --- | --- |
| binds | binds | binds | binds | binds |  | Ephrin B2-alkaline phosphatase (Ephrin B2-AP) fusion protein (protein fusion of Ephrin B2 ectodomain with placental alkaline phosphatase) (ligand, also called B2EC-AP; B2ECAP; not shown: placental alkaline phosphatase from the pAPTag2 vector (GenHunter)) IVLEPIYWNSSNSKFLPGQGLVLYPQIGDKLDIICPKVDSKTVGQYEYYKVYMVDKDQADRCTIKKENTPLLNCAKPDQDIKFTIKFQEFSPNLWGLEFQKNKDYYIISTSNGSLEGLDNQEGGVCQTRAMKILMKVGQDASSAGSTRNKDPTRRPELEAGTNGRSSTTSPFVKPNPGSSTDGNSAGHSGNNILGSEVALFA |
|  |  |  |  |  | binds | ephrin B2 on tumor cells of human Kaposi's sarcoma biopsy sections (ligand) IVLEPIYWNSSNSKFLPGQGLVLYPQIGDKLDIICPKVDSKTVGQYEYYKVYMVDKDQADRCTIKKENTPLLNCAKPDQDIKFTIKFQEFSPNLWGLEFQKNKDYYIISTSNGSLEGLDNQEGGVCQTRAMKILMKVGQDASSAGSTRNKDPTRRPELEAGTNGRSSTTSPFVKPNPGSSTDGNSAGHSGNNILGSEVALFAGIASGCIIFIVIIITLVVLLLKYRRRHRKHSPQHTTTLSLSTLATPKRSGNNNGSEPSDIIIPLRTADSVFCPHYEKVSGDYGHPVYIVQEMPPQSPANIYYKV |
